How the values were obtained:
[1] = molecular target: UDP-MurNAc-L-Ala-D-iGlu-L-Lys-D-Ala-D-Ala
[2] = molecular target: T1, UDP-MurNAc-L-Ala-D-iGlu-L-Lys-D-Ala (not fully specified)
T1 chain: AEKA

[3] = molecular target: T2, GlcNAc-MurNAc-L-Ala-D-iGln-L-(N-epsilon-D-iAsn)Lys-D-Ala
T2 chain: AQKA

[4] = molecular target: T3, L-Ala-D-iGlu-L-Lys-D-Ala (not fully specified)
T3 chain: AEKA

[5] = molecular target: GlcNAc-MurNAc-L-Ala-D-iGlu-L-(N-epsilon-D-iAsn)Lys-D-Ala-D-Ala
[6] = molecular target: T4, GlcNAc-MurNAc-L-Ala-D-iGln-L-Lys-D-Ala
T4 chain: AQKA

[7] = molecular target: T5, N-alpha,N-epsilon-diacetyl-L-lysyl-D-alanine
T5 chain: KA

[8] = molecular target: L-Ala-D-iGlu-L-Lys-D-Ala-D-Ala
[9] = molecular target: T6, GlcNAc-MurNAc-L-Ala-D-iGlu-L-(N-epsilon-D-iAsn)Lys-D-Ala (not fully specified)
T6 chain: AEKA

B1: D-aspartate ligase of Enterococcus faecium (Aslfm) (protein)
chain: MMNSIENEEFIPILLGSDMNVYGMARSFNEAYGKICQAYASDQLAPTRYSKIVNVEVIPGFDKDPVFIETMLRLAKERYSDKSKKYLLIACGDGYAELISQHKQELSEYFICPYIDYSLFERLINKVSFYEVCEEYDLPYPKTLIVREEMLVNGHLEQELPFEFPVALKPANSVEYLSVQFEGRKKAFILETREEFDLILGRIYEAGYKSEMIVQDFIPGDDSNMRVLNAYVDEDHQVRMMCLGHPLLEDPTPASIGNYVVIMPDYNEKIYQTIKAFLEKIEYTGFANFDMKYDPRDGEYKLFEINLRQGRSSFFVTLNGLNLARFVTEDRVFNKPFVETTYGTNQSDKARLWMGVPKKIFLEYARENEDKKLAEQMIKENRYGTTVFYEKDRSIKRWLLMKYMFHNYIPRFKKYFHVKEG
formation of [14C]UDP-MurNac-hexapeptide in the D-aspartate ligase assay [1]: Addition of 2 µg of purified protein in the D-aspartate ligase assay resulted in the formation of a radioactive product corresponding to the labeled hexapeptide

B2: L,D-transpeptidase of Enterococcus faecium M512 (Ldtfm), soluble recombinant fragment, residues 119 to 466, with C-terminal polyhistidine tag (protein)
chain: MAEKQEIDPVSQNHQKLDTTVQTLTTKLTDLNKDRTPTTDATIEKAGDSFVIKPEVNGNTIDVDAAVKQLKSAVNSGKDTIELTEFKEKPKVTSEDSSLKEQLASMNAIANVKATYSINGETFQIPSSDIMSWLTYNDGKVDLDTEQVRQYVTDLGTKYNTSTNDTKFKSTKRGEVTVPVGTYSWTIQTDSETEALKKAILAGQDFTRSPIVQGGTTADHPLIEDTYIEVDLENQHMWYYKDGKVALETDIVSGKPTTPTPAGVFYVWNKEEDATLKGTNDDGTPYESPVNYWMPIDWTGVGIHDSDWQPEYGGDLWKTRGSHGCINTPPSVMKELFGMVEKGTPVLVFGSHHHHHH
formation of radioactive peptides in the exchange assay with D-[14C]Ala as the acceptor [2]: Formation of radioactive peptides was observed ... with other donors containing a tetrapeptide ending in D-Ala | formation of radioactive peptides in the exchange assay with D-[14C]Ala as the acceptor [1]: Formation of radioactive peptides was not detected | formation of dimers, by mass spectrometry (in vitro L,D-transpeptidation) [3]: formation of dimers with two types of donors (tetrapeptide and tetrapeptide-iAsn) and two types of acceptors (tetrapeptide-iAsn and tripeptide-iAsn) in the four possible combinations | formation of radioactive peptides in the exchange assay with D-[14C]Ala as the acceptor [4]: Formation of radioactive peptides was observed ... with other donors containing a tetrapeptide ending in D-Ala | formation of radioactive peptides in the exchange assay with D-[14C]Ala as the acceptor [5]: Formation of radioactive peptides was not detected | formation of dimers, by mass spectrometry (in vitro L,D-transpeptidation) [6]: formation of dimers with two types of donors (tetrapeptide and tetrapeptide-iAsn) ...; The muropeptide containing an unsubstituted tetrapeptide stem was not used as an acceptor | formation of radioactive peptides in the exchange assay with D-[14C]Ala as the acceptor [7]: Formation of radioactive peptides was observed not only with Ac2-L-Lys-D-Ala | formation of radioactive peptides in the exchange assay with D-[14C]Ala as the acceptor [8]: Formation of radioactive peptides was not detected | formation of radioactive peptides in the exchange assay with D-[14C]Ala as the acceptor [9]: Formation of radioactive peptides was observed ... also with the complete disaccharide-tetrapeptide(iAsn) peptidoglycan unit
